Experimental data taken from the RNAGym collection of RNA variant scans (doi:10.1073/pnas.2313332121).

B1: TPR t1 (parent)
chain: GACCAAUCUGCCCUCAGAGCUCGAGAACAUCUUCGGAUGCAGAGGAGGCAGGCUUCGGUGGCGCGAUAGCGCCAACGUCCUCAACCUCCAAUGCAUCCCACCACAUGAUGAUGCCUGAAGAGCCUUGGUUUUUUG

Variants of: B1
Test: polymerase ribozyme fitness, log enrichment relative to wild type (log ratio); higher = more active; in vitro selection for triplet polymerase activity
Method in brief: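 PCR was used to build mutant libraries for each subunit of a heterodimeric triplet polymerase ribozyme, which were then transcribed. A single in vitro selection round, in triplicate, used a frozen incubation at −7 °C and recovered extended constructs by gel excision, streptavidin beads and RT-PCR. Fitness is the logarithm of genotype enrichment relative to wild-type enrichment, averaged over replicates with inverse-variance weights. The logarithm is base 2, and after Illumina sequencing only genotypes with ≥10 input reads and ≥1 read per output were kept.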

In order of rising “polymerase ribozyme fitness (log ratio)” value:
1. C34G U59A G117U U129G  -8.01
2. C34G C53U G60A U87G G110C  -7.9
3. C34G A41C C56A A66U C115A  -7.59
4. C34G C70U U96A A103U A121C U132C  -7.51
5. G35U G61A C98G G107C C115A G120A  -7.51
6. G35A C72U C98A G117U  -7.49
7. C34G G61A G113U G122U  -7.08
8. G35A G39A C70U C72U U109G C124U  -7.05
9. C34G G39A C56A G69U C79A A103U C104G G110A C115G  -7.05
10. C34G A50U G61C A90G G110C  -7.04
11. C34G C80U C89G G120C U129C  -6.96
12. A37C U54A C64U U109A  -6.92
13. C34U U54A G69U C79U G93A U96A  -6.73
14. C34G G60A C70A A105U G117U U126A U129A U133G  -6.69
15. C34G G51U C104U  -6.64
16. G36C G69A G71A U81G C88A G93C C99A C123U  -6.5
17. G35A C98G  -6.5
18. C34G A83G  -6.49
19. G36U G47C G117U  -6.43
20. G36C G69A U112G G117A  -6.31
21. G36U C73U G107C  -6.17
22. C34G C40U  -6.15
23. C34U U92A  -6.09
24. C34G A43C G60U  -6.09
25. G35C A46C C97U  -6.04
26. C34G A90C U112G  -6.02
27. A37C U67C U81C C123A  -5.95
28. C34G A37U U55G C72G U92C C124A  -5.91
29. C34G C53U  -5.89
30. C34U A50U C102U U109A C124U  -5.84
31. G35U G63U C101A C115U  -5.79
32. C34U A83C  -5.74
33. C34A G61C A91C A121U U134C  -5.66
34. G35A A37U U87G  -5.66
35. C34G U87A  -5.65
36. G35U G47A  -5.64
37. G35A G42C  -5.64
38. G35U U67C U109A C115U  -5.63
39. G35C U38G G63C C123A U129A  -5.52
40. G35A C73U U78G A90G C115G A121C  -5.51
41. G36A G71A C94A  -5.5
42. G35C C98A A103C C123U  -5.49
43. C34A G60A C115U  -5.48
44. C34G A46C U106A G110A U130G U131A  -5.46
45. C34G C79U  -5.43
46. G35A G42A U106A U112G A121C G127U G128A  -5.37
47. C34A C89U G117U  -5.32
48. G36A G69A C73G G120A  -5.29
49. G35C C79U C104A C124A  -5.25
50. C34A G60A A103G C124U G135A  -5.23
51. G36A G48U G63U C79G  -5.18
52. C34A U38A G71U C101U  -5.16
53. G35U C72A  -5.07
54. C34U C53U C56U  -5.01
55. G35U C56U  -4.99
56. A37G A83C C88G U130G  -4.95
57. C34U G113C  -4.95
58. C34A G44C G69U C88A A91C G110A  -4.87
59. A37G G42A C79G C104U  -4.86
60. C34U U125A  -4.8
61. C34U U87A  -4.77
62. C34G U106A  -4.72
63. A37C C56G C101A G110U G127U  -4.67
64. G36A G42A C70U C72U  -4.5
65. C34A C97A C115G  -4.43
66. G36C C49G C102A U125A  -4.36
67. C34U C86U C104U C114U  -4.34
68. C34U C72U U106A  -4.34
69. G35C A95U  -4.31
70. G36U U116A  -4.2
71. C34A G36U  -4.2
72. G36U G39U G44A  -4.17
73. G35A G113A  -4.16
74. G35A U78G  -4.14
75. G35A A46U A83U U87C C104U  -4.09
76. C34U G110U  -4.07
77. C34U C114U U131A  -4.04
78. C34U G120A U130A  -4.02
79. G35C G120U  -3.99
80. A37U C88U C101G C115G  -3.98
81. G35A C53G C62U G77C A84C C124G G135C  -3.97
82. C34U C72A  -3.94
83. G36U C80A  -3.93
84. G36U A83C C104U U106G  -3.91
85. G36A G60C U78C C79U C85A A90G  -3.89
86. C34U A50U  -3.8
87. C34U G60U C99U  -3.7
88. G36A G69A  -3.69
89. G36A U92A  -3.67
90. G36U U78G A105C  -3.65
91. A37G G60A C102U  -3.61
92. G36C G44A G71A A75G C89A  -3.61
93. G35U C123A  -3.61
94. G36A A43C  -3.56
95. G36U U112G G113U  -3.55
96. G36U A46U C72G C82A U87C U130G  -3.54
97. G36U C40A  -3.53
98. A37U C40A G69C U130A  -3.51
99. A37G C70G  -3.43
100. G36U G51C G69U C115U  -3.32
101. A37U A111U  -3.3
102. G36U G117U  -3.26
103. G36A C73G C101A U106C  -3.26
104. G36U C53G C56A C72G  -3.23
105. C34A U55C  -3.18
106. A37C C62G G120U U125G U130C  -3.18
107. C34A G135U  -3.05
108. A37U A46U  -2.98
109. A37U A50G G52A A111G G117A  -2.93
110. G35C C49G C98G  -2.89
111. G35U C123U  -2.85
112. G35A G69U C101G  -2.83
113. A37U A41U C88U  -2.75
114. A37U C64U C88U C102A  -2.71
115. G36C G52C C70A U106A  -2.71
116. A37C G71U C101A G127C  -2.36
117. G36U C53U G61A U96G  -2.34
118. G36A A84C G117A  -2.24
119. C34G G69U  -2.21
120. C34A U133A  -2.19
121. C34A C123A  -2.18
122. G36C C88A  -2.1
123. A37G C94G  -2.1
124. G36U G57A  -2.09
125. G36U G52A C97U G110A  -2.04
126. A37C A91G  -2.03
127. G36A G48U A84G  -2.02
128. G36U C115U  -2.01
129. A37G C56U C102A  -1.87
130. A37G U132C  -1.86
131. G36U U106A G127C  -1.83
132. A37U A50U C94U  -1.81
133. G36A C49A G60A A118G  -1.7
134. A37C A46C C62U U78G  -1.66
135. A37C G44A C53U C104U  -1.64
136. G36A G71A  -1.64
137. G36A G71U U78A  -1.53
138. G36U U112G  -1.32
139. A37G C76U  -1.3
140. A37G C114A  -1.28
141. G36C  -1.27
142. A37C G71C  -1.27
143. A37C U38G  -1.27
144. A37U C73G  -1.27
145. G36A U125A  -1.27
146. A37C U55C  -1.17
147. G36U A118U  -1.08
148. G36U  -1.06
149. G36A C70U  -1.06
150. A37G G44C C72G U78C  -1.05
151. A37U A50G  -0.867
152. G36A  -0.858
153. A37G C49A  -0.708
154. A37G C49G C82U  -0.637
155. G36C U55A U131A  -0.527
156. A37C A83U  -0.456
157. A37C  -0.431
158. G36A C64U C72A U106A  -0.401
159. G36A C82G C123U  -0.368
160. A37U  -0.355
161. A37G  -0.185
162. A37U C72U U96A  -0.172
163. G36A C97U  -0.157
164. G36U C123U  0.205
165. A37C C123G  0.773
166. G36A C124U  0.816
167. A37U A75U G120C  1.14
